Measured values published in paper PMC8567202, “Phosphoinositide-binding activity of Smad2 is essential for its function in TGF-β signaling” (The Journal of Biological Chemistry, 2021).
Numbering of substitutions follows the chain as printed. In names and notes the source's numbering stands. Entries after “also recorded” stand apart in the source; their conditions may differ.

B1: Smad2-W422A: W422A mutant of full-length Smad2; specific PI(4,5)P2 binding-compromised (protein)
chain: MSSILPFTPPVVKRLLGWKKSAGGSGGAGGGEQNGQEEKWCEKAVKSLVKKLKKTGRLDELEKAITTQNCNTKCVTIPSTCSEIWGLSTANTVDQWDTTGLYSFSEQTRSLDGRLQVSHRKGLPHVIYCRLWRWPDLHSHHELKAIENCEYAFNLKKDEVCVNPYHYQRVETPVLPPVLVPRHTEILTELPPLDDYTHSIPENTNFPAGIEPQSNYIPETPPPGYISEDGETSDQQLNQSMDTGSPAELSPTTLSPVNHSLDLQPVTYSEPAFWCSIAYYELNQRVGETFHASQPSLTVDGFTDPSNSERFCLGLLSNVNRNATVEMTRRHIGRGVRLYYIGGEVFAECLSDSAIFVQSPNCNQRYGWHPATVCKIPPGCNLKIFNNQEFAALLAQSVNQGFEAVYQLTRMCTIRMSFVKGAGAEYRRQTVTSTPCWIELHLNGPLQWLDKVLTQMGSPSVRCSSMS
modifications: left off: His6, N-terminal, state not stated
B2: Smad2-Y426A: Y426A mutant of full-length Smad2; specific PI(4,5)P2 binding-compromised (protein)
chain: B1 chain with A422W, Y426A
modifications: left off: His6, N-terminal, state not stated
B3: Smad2- R427A/R428A: double mutant of full-length Smad2; PI(4,5)P2 and TβRI binding-compromised (protein)
chain: B1 chain with A422W, R427A, R428A
modifications: left off: His6, N-terminal, state not stated
B4: Smad2-K420A: K420A mutant of full-length Smad2; predominantly TβRI binding-compromised (protein)
chain: B1 chain with K420A, A422W
modifications: left off: His6, N-terminal, state not stated
B5: Smad2-E425K: charge-reversal mutant of full-length Smad2; PI(4,5)P2 and TβRI binding-enhanced (protein)
chain: B1 chain with A422W, E425K
modifications: left off: His6, N-terminal, state not stated
B6: Smad2 WT: bacterially expressed full-length Smad2 wild-type (protein)
chain: B1 chain with A422W
modifications: left off: His6, N-terminal, state not stated
notes: bacterially expressed full-length Smad2 wild-type

Assay: SPR membrane binding to POPC/POPS/PI(4,5)P2 vesicles
Conditions: for affinity for POPC/POPS/PI(4,5)P2 (77:20:3) relative to WT: in words; for Kd: L1 chip, 23 °C, 20 mM Tris, pH 7.4, 0.16 M NaCl, average ±S.D., n = 3, read-out: Kd for lipid binding, PC/PS/PI(4,5)P2; for PI(4,5)P2 selectivity over POPC/POPS (80:20) / binding to POPC/POPS/PI(4,5)P2 (77:20:3): RU/RUmax
Description: It has been generally thought that Smad2 and Smad3 are targeted to the activated TGF-β signaling complex by direct interaction with TβRI ([1], [2]) or via SARA ([7]). However, it has been shown that many cytosolic proteins that are targeted to membrane proteins or membrane-anchored signaling complexes have affinity for membrane lipids ([14]), phosphoinositides (PtdInsPs) in particular, and that their membrane recruitment is mediated by coincident lipid–protein and protein–protein interactions ([15], [16]). For most of these proteins, their PtdInsP specificity directs their membrane targeting behaviors: e.g., PI(4,5)P2-specific proteins are recruited to PM where the highest concentration of PI(4,5)P2 is found, whereas PI(3)P-specific proteins are targeted to PI(3)P-rich EEs ([17], [18]). To resolve uncertainty about the functional location of the activated TGF-β signaling complex, we thus explored the possibility that lipid-binding activity of Smad2 may play a role in specific targeting of Smad2 to the active TGF-β receptor complex either at the PM or at EEs. Lipid-binding activity of Smad proteins has not been reported to date. We thus measured the binding of bacterially expressed Smad2 to large unilamellar vesicles (LUVs) containing various lipids by surface plasmon resonance (SPR) analysis ([19], [20]). Lipid selectivity determined by SPR analysis is typically reported as the relative resonance unit (RU) values for different lipids at a given protein concentration ([21], [22]). Although simple and intuitive, this type of analysis can sometimes yield misleading and erroneous results because some proteins show widely different RU values when bound to different lipid surfaces. Thus, a more reliable parameter that represents the fraction of the membrane bound protein molecules at a given protein concentration would be a normalized value of RU/RUmax where RUmax indicates the maximal RU value when a given lipid surface is saturated with the protein molecules. We thus estimated RUmax for different lipid species by employing the highest protein concentration experimentally feasible (e.g., 1 μM) and determined RU/RUmax for different lipids at the protein concentration that allows robust comparison (e.g., 100 nM). Once the lipid selectivity has been determined by this semiquantitative approach, we then rigorously determined and compared Kd values for selected lipids for more accurate quantitative determination of lipid selectivity.
Figure 1 Membrane-binding properties of Smad2 FL protein and MH2 domain determined by SPR analysis.A, PtdInsP selectivity of Smad2-FL determined using POPC/POPS/PtdInsP (77:20:3 in mole ratio) LUVs coated on the L1 sensor chip. The protein concentration was 100 nM. PIP3 indicates PI(3,4,5)P3. B, determination of Kd for binding of Smad2 FL to different LUVs. The protein concentration was varied from 0 to 500 nM. C, PI(4,5)P2 concentration dependence of membrane binding of Smad2-FL determined using POPC/POPS/PI(4,5)P2 (77-x:20:x, x = 0–5 mol%) LUVs. The protein concentration was 100 nM. D, PtdInsP selectivity of the Smad2 MH2 domain determined using POPC/POPS/PtdInsP (77:20:3 in mole ratio) LUVs. The protein concentration was 100 nM. Normalized RU values (RU/RUmax) were used for all figures but (C) for more accurate determination of PtdInsP selectivity. RUmax values determined for different vesicles at 1 μM Smad2 were: 280 ± 20 for POPC/POPS/PI(4,5)P2 (77:20:3), 370 ± 10 for POPC/POPS/PI(3,4)P2 (77:20:3), 400 ± 15 for POPC/POPS/PI(3,4,5)P3 (or PIP3) (77:20:3), 400 ± 20 for POPC/POPS/PI(3)P (77:20:3), and 380 ± 20 for POPC/POPS (80:20). Only the association phases of the sensorgrams are shown and used for further analysis. Each set of sensorgrams shown in A and D are representatives of >5 independent measurements. Data points shown in B and C are the average ±S.D. values from triplicate measurements. […]

[1] = SPR, POPC/POPS/PI(4,5)P2 (77:20:3)

Molecule | affinity for POPC/POPS/PI(4,5)P2 (77:20:3) relative to WT (SPR, Kd comparison) | Kd [1] [nM] | PI(4,5)P2 selectivity over POPC/POPS (80:20) (SPR, 100 nM protein) | binding to POPC/POPS/PI(4,5)P2 (77:20:3) (SPR, 100 nM protein) | lower affinity for POPC/POPS/PI(4,5)P2 (77:20:3) than WT (SPR, decrease in affinity vs WT) [%] | higher affinity for POPC/POPS/PI(4,5)P2 (77:20:3) than WT (SPR, increase in affinity vs WT) [%] | RUmax (POPC/POPS/PI(4,5)P2 (77:20:3), 1 μM Smad2) | affinity for PI(4,5)P2-containing vesicles relative to PI(3)P-containing ones (SPR, Kd comparison) | increase in membrane affinity by 3 mol% PI(4,5)P2 over POPC/POPS (80:20) vesicles (SPR, Kd comparison) [fold] | PI(4,5)P2 concentration dependence of membrane binding (SPR, POPC/POPS/PI(4,5)P2 (77-x:20:x, x = 0–5 mol%), 100 nM protein)
B1 | three- to five-fold lower affinity | 470 ± 96 | essentially no PI(4,5)P2 selectivity; also recorded: lost the PI(4,5)P2 selectivity | greatly reduced binding | – | – | – | – | – | –
B2 | three- to five-fold lower affinity | 400 ± 44 | essentially no PI(4,5)P2 selectivity; also recorded: lost the PI(4,5)P2 selectivity | greatly reduced binding | – | – | – | – | – | –
B3 | three- to five-fold lower affinity | 340 ± 53 | essentially no PI(4,5)P2 selectivity; also recorded: lost the PI(4,5)P2 selectivity | greatly reduced binding | – | – | – | – | – | –
B4 | – | 120 ± 12 | – | modestly and similarly reduced binding to both vesicles | 20 | – | – | – | – | –
B5 | – | 70 ± 7 | retaining the PI(4,5)P2 selectivity of WT | modestly higher membrane binding than WT | – | ~40 | – | – | – | –
B6 | – | 100 ± 20 | – | – | – | – | 280 ± 20 | twofold higher affinity | 5.6 | dependent on the PI(4,5)P2 concentration
